Results: US12215162B2, “BAFF-R targeted chimeric antigen receptor-modified T-cells and uses thereof” (CITY OF HOPE, priority 2016, dated 2025)

Assays:
[1] = system: primary CLL and MCL samples; test: ADCC against primary samples from rituximab-treated patients; assay type: cell-based, human; details: CLL (n=3) and MCL (n=2), E:T 20:1
Method: FIGS. 3A and 3B are graphs showing BAFF-R monoclonal antibodies induce in vitro Antibody Dependent Cell-Mediated Cytotoxicity (ADCC) against primary B-cell tumors. Antibody-dependent cell-mediated cytotoxicity (ADCC) effects were measured by chromium-51 release after incubation with C55, C90, or rituximab and effectors (NK cells). […] Data are shown as the mean±s.d. of triplicate samples. *P<0.05 compared with NK cells by two-tailed Student's t-test.
(§1) Cytotoxicity assays. Target cells (L cells, human tumor lines, primary patient samples) were labeled with chromium-51 (51Cr, Perkin Elmer, Waltham, MA) for a 51Cr release assay. Briefly, antibodies and effectors (NK cells or complement serum standard [Sigma Aldrich, St. Louis, MO]), were added to labeled target cells and incubated up to 18 hours. NK cells were enriched from PBMC (NK cell enrichment kit, Stemcell Technologies, Vancouver, Canada). 51Cr released into supernatant was detected with a Wizard Automatic Gamma Counter (Perkin Elmer).

JeKo-1 (MCL) = test: In vivo JeKo-1 MCL tumor model, antibody treatment; parameters: species or system NSG mice; details: 200 μg antibody + NK-92-176V cells + IL-2 IV, vs PBS or NK cells alone
Text: (§2) FIG. 4A is a schematic showing treatment schedule following Day 0 tumor challenge with minimum lethal dose of tumors. Treatments were given by IV tail vein injections. FIGS. 4B and 4C are images showing chimeric antibodies targeting human BAFF-R elicited in vivo therapeutic effects against B-cell tumors. Bioluminescence images of mice challenged with luciferase-expressing tumors: JeKo-1 (MCL) (FIG. 4B) or RS4; 11 (ALL) (FIG. 4C). Experimental groups received treatment of chimeric BAFF-R mAbs (C55 or C90, as indicated). Control group mice received PBS, NK cells alone, or rituximab on the same schedule. Data are representative of three independent experiments.
(§3) In vivo studies. For tumor models, stable, luciferase-expressing tumors lines were established for bioluminescent imaging in mouse models. Briefly, a luciferase gene was introduced into tumor lines by a lentivirus gene delivery system (pLenti7.3/V5-DEST Gateway Vector Kit, Life Technologies, Carlsbad, CA). The minimum lethal dose per mouse was determined for each tumor cell line by dose titration. Tumor cells were injected intravenously (IV) and mice were monitored by in vivo bioluminescence imaging for minimum tumor dose to ensure engraftment. Minimum lethal tumor doses were 1×10^6 JeKo-1, 5×10^5 RS4; 11, 5×10^5 JeKo-1-CD20-KO, or 2.5×10^4 Z-138 cells. […]

Z-138 = test: In vivo ibrutinib-resistant Z-138 tumor model, antibody treatment; parameters: species or system NSG mice; details: vs PBS or NK only
Text: (§4) FIGS. 6A and 6B are images and FIG. 6C are graphs showing chimeric antibodies targeting human BAFF-R elicited in vivo therapeutic effects against drug resistant B-cell tumors. Bioluminescence images of mice challenged with luciferase-expressing tumors JeKo-1-CD20-KO cells (FIG. 6A) or ibrutinib-resistant Z-138 cells (FIG. 6B) followed by antibody treatments as in FIG. 4. Control group mice received PBS, NK cells alone, or rituximab on the same schedule. […] Tumor free rate and survival differences between experimental and all control groups were analyzed by log-rank test (** P<0.001). Data are representative of three independent experiments.
as §3

[2] = system: BAFF-R-expressing L cells and JeKo-1; test: ADCC chromium-51 release assay with NK cells; assay type: cell-based; details: NK cells E:T 20:1; controls parental L cells and U266
Method: Antibody-induced cytotoxicities measured by chromium-51 release after incubation with C55, C90, or rituximab and effectors (NK cells or complement containing serum). NK effector cell to target ratio (E:T) of 20:1. […] Data are shown as the mean±s.d. of triplicate samples. *P<0.05 compared with NK cells by two-tailed Student's t-test.
FIG. 12 is a graph showing chimeric antibodies induced ADCC against BAFF-R expressing L cells. BAFF-R-expressing D2C L cells (targets) were labeled with chromium-51 followed by incubation overnight with chimeric mAb+NK cells (effector to target ratio, 20:1). Culture supernatant was analyzed for released chromium.
as §1

[3] = system: RS4; 11 (acute lymphoblastic leukemia, ALL); test: In vivo RS4;11 ALL tumor model, antibody treatment; parameters: species or system NSG mice; details: 200 μg antibody + NK-92-176V cells + IL-2 IV
Text: as §2, §3

JeKo-1-CD20-KO = test: In vivo JeKo-1-CD20-KO tumor model, antibody treatment; parameters: species or system NSG mice
Text: as §4, §3

Mino cells = test: Internalization of antibody on Mino cells; assay type: cell-based, human; details: 37° C. for 1 hour
Method: Mino cells were incubated with mAb C90 (0.05 μg/10^6 cells) at 4° C. for 20 minutes followed by incubation at 37° C. for 1 hour. Flow cytometry analysis was performed with anti-mouse IgG-APC. Cells were gated for surface localized antibodies (OUT) and loss of cell surface staining (IN).

[4] = system: JeKo-1, SU-DHL-6, Raji, and RL; test: Flow cytometry binding to non-Hodgkin lymphoma lines; parameters: species or system human; details: Alexa Fluor 488 conjugated chimeric antibody
Text: FIGS. 1A, 1B, 1C, 1D and 1E are FACS images showing generation and specificity of novel monoclonal antibodies against human BAFF-R. FIG. 1A is a FACS analysis of cell surface expression of hBAFF-R-GFP fusion protein in mouse fibroblast L cells. Gated on GFP-positive cells, engineered L cell clone (right plot) is compared to parental L cells (left plot). Clone D2C was selected for further studies. FIGS. 1B, 1C, 1D and 1E are FACS traces of fluorescent counts of anti-BAFF-R antibodies binding cell lines and patient samples. […] BAFF-R-negative 293T embryonic kidney cell line was used as a control. […] Parental L cells and secondary anti-hIgG-APC antibodies only were used as controls. […] The data are representative of three independent experiments. For all of FIGS. 1B-1E, the traces from top to bottom as shown in the figures correlate with the variables (e.g., antibody type or cell type) used from top to bottom shown below or next to the figures.
FIG. 10 are results of FACS analyses showing hBAFF-R mAbs recognized non-Hodgkin lymphoma cell lines in vitro. […] The traces from top to bottom as shown in the figures correlate with the variables (e.g., antibody type or cell type) used from top to bottom shown next to the figures.

JeKo-1-CD20-KO clone 25 = test: ADCC against rituximab-resistant JeKo-1-CD20-KO; assay type: cell-based, human; details: NK cells E:T 20:1
Method: FIGS. 5A, 5B and 5C are images or graphs showing chimeric BAFF-R antibodies induce ADCC on drug resistant lymphoma models in vitro. FIG. 5A is a scatterplot of FACS analysis showing CD20 binding on JeKo-1 cells following CRISPR/HDR knock-out of CD20 gene. CD20 expression on selected CD20−/−clone #25 compared to WT JeKo-1. ADCC effects measured by chromium-51 release after incubation with C55, C90, or rituximab and effectors NK cells (E:T=20:1). Percentage of cell specific lysis of target cells: rituximab-resistant JeKo-1-CD20-KO (FIG. 5B) and ibrutinib-resistant Z-138 and SP49-IR (FIG. 5C). All data are representative of two or more identical experiments. Data are shown as the mean±s.d. of triplicate samples. *P<0.05 compared with NK cells by two-tailed Student's t-test.
as §1
Generation of JeKo-1-CD20-KO. […]

B1: C55: chimeric mAb from clone 55 containing human IgG1 constant regions (antibody, V domains shown)
VH: QVTLKESGPGILKPSQTLSLTCSFSGFSLSTSGMGVGWIRQPSGKGLEWLAHIWWDDDKYYNSSLKSHLTISKDTSRNQVFLKITSVDTADTATYYCARSFGYGLDYWGQGTTLTVSS
VL: DIQMTQTTSSLSASLGDRVTISCSASQDISNYLNWYQQKPDGTVKLLIYYTSSLHSGVPSRFSGSGSGTDYSLTISSLEPEDIATYYCHQFSELPWTFGGGTKLEIK
killing by ADCC [1]: sensitive to killing by ADCC
tumor growth (bioluminescence) (JeKo-1 (MCL)): significant retardation of tumor growth
antitumor effects (Z-138): significant effects
antibody-dependent cell-mediated cytotoxicity (ADCC) [2]: elicited antibody-dependent cell-mediated cytotoxicity (ADCC) specifically against BAFF-R-expressing L cells and JeKo-1
tumor growth (bioluminescence) [3]: markedly retarded tumor growth
tumor free and long-term overall survival (JeKo-1-CD20-KO; 80-day): significant antitumor effects
tumor burden by bioluminescent imaging (JeKo-1-CD20-KO; Day 20): no visible tumors
internalization upon binding BAFF-R (Mino cells): limited internalization
direct binding to NHL lines [4]: exhibited direct binding
sensitivity to antibody-mediated cytotoxicity (JeKo-1-CD20-KO clone 25): retained sensitivity
